Legend:
[1] = biological target: GST-Xchk1(306-352) S344A (UniProt Q6DE87)
[2] = biological target: GST-Xchk1(306-352) S344A+T314A (UniProt Q6DE87)
[3] = biological target: GST-Xchk1(306-352) T314A (UniProt Q6DE87)
[4] = biological target: GST-Xchk1(347-374) S365A+S356A (UniProt Q6DE87)
[5] = biological target: GST-Xchk1(347-374) S365A (UniProt Q6DE87)
[6] = biological target: GST-Xchk1(347-374), wildtype peptide fragment (UniProt Q6DE87)
[7] = biological target: GST-Xchk1(347-374) S356A (UniProt Q6DE87)
[8] = biological target: GST-Xchk1(306-352), wild type peptide fragment (UniProt Q6DE87)
[9] = biological target: GST-Xchk1-N135A (kinase inactive Xchk1 mutant, bacterially expressed) (UniProt Q6DE87)
[10] = biological target: GST-Xchk1-N135A-4AQ (bacterially expressed) (UniProt Q6DE87)
[11] = system: PHAS-I (model substrate protein)

Sequence of Xenopus laevis ATR (Xatr), endogenous protein in Xenopus egg extracts (chain, as listed by the source): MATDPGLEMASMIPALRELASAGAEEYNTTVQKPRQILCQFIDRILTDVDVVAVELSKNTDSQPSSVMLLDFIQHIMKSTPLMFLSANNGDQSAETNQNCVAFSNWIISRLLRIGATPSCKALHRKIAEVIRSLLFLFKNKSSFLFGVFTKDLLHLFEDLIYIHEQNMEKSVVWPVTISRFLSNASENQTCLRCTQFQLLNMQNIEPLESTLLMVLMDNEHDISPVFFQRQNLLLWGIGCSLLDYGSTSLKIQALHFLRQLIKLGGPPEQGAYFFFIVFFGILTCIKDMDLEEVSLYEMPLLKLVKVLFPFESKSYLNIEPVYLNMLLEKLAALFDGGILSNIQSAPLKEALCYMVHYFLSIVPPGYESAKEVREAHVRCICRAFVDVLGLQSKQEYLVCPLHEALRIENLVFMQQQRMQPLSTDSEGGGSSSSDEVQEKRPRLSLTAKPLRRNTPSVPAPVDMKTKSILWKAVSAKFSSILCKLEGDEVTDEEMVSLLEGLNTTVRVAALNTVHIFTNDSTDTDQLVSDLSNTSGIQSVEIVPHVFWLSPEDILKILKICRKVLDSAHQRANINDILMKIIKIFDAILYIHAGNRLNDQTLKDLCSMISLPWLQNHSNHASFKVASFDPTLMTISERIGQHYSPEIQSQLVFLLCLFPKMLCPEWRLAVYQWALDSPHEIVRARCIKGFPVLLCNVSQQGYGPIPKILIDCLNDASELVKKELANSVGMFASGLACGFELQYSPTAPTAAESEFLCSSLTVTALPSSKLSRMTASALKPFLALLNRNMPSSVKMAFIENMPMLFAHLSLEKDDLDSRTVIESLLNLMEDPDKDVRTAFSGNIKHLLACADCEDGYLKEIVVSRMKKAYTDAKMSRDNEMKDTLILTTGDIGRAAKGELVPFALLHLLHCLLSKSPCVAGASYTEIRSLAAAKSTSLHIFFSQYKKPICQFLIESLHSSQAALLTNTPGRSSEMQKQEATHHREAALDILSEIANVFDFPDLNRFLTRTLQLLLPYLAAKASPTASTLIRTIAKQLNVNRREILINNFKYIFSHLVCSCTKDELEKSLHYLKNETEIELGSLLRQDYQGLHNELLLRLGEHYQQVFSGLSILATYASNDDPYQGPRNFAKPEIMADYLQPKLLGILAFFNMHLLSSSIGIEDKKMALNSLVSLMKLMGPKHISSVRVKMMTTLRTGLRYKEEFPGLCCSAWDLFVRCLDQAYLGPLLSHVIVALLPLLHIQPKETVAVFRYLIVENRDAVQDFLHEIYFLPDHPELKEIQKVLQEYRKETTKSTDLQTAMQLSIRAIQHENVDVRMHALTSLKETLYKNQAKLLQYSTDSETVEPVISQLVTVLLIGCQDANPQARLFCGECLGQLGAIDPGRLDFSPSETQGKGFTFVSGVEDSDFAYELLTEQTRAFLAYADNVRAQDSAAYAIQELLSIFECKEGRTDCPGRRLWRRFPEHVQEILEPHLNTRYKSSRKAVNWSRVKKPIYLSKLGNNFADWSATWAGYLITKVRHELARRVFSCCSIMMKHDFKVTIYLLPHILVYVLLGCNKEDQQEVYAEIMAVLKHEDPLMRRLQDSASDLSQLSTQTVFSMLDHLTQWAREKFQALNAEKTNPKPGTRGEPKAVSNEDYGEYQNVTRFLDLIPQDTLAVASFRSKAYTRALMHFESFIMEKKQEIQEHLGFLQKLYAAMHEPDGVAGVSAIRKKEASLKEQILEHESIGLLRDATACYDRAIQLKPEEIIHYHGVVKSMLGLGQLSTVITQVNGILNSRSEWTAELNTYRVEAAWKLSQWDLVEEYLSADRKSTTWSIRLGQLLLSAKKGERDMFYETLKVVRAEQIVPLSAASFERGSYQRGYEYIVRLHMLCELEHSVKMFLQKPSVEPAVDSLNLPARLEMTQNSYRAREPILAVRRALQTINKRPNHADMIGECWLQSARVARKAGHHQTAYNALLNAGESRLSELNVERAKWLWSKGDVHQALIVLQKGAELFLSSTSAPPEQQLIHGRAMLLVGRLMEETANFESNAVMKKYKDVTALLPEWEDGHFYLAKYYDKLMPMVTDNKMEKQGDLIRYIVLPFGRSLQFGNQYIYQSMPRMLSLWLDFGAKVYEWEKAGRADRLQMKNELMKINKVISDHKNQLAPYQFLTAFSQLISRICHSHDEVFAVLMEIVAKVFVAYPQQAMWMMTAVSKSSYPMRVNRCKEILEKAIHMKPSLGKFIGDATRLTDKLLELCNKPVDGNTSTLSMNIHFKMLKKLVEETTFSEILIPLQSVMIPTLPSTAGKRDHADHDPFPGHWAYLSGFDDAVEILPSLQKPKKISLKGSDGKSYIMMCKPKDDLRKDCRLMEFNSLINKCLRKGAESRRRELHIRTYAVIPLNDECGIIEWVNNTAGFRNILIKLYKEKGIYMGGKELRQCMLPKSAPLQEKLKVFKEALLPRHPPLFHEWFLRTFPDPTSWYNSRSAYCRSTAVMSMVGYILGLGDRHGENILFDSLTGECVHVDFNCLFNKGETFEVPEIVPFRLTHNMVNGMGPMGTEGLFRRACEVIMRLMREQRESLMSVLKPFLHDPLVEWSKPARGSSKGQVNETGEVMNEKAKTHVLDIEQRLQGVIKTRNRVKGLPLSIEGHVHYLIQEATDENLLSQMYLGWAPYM
Sequence of GST-Xchk1(347-374), wildtype peptide fragment (Q6DE87 347-374): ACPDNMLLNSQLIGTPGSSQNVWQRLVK
Sequence of GST-Xchk1(306-352) S344A (Q6DE87 whole entry S344A, looked up, tested part not stated): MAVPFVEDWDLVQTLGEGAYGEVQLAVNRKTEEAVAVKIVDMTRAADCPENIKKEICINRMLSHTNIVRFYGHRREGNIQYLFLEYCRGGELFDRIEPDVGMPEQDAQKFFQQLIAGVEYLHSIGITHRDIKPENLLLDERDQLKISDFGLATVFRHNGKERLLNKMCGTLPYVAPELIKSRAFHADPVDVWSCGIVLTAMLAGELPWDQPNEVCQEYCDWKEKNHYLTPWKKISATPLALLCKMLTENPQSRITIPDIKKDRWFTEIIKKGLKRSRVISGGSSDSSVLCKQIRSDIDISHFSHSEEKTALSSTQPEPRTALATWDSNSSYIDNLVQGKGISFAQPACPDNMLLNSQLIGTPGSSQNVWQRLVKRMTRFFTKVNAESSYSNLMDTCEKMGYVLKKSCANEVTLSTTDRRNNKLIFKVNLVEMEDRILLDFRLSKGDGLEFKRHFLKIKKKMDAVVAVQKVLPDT
Sequence of GST-Xchk1(306-352) T314A (Q6DE87 whole entry T314A, looked up, tested part not stated): as the sequence (Q6DE87 whole entry S344A, looked up, tested part not stated) above, with T314A, A344S counted along it
Sequence of GST-Xchk1(347-374) S356A (Q6DE87 whole entry S356A, looked up, the tested form may be a part): as the sequence (Q6DE87 whole entry S344A, looked up, tested part not stated) above, with A344S, S356A counted along it
Sequence of GST-Xchk1(306-352) S344A+T314A (Q6DE87 whole entry T314A/S344A, looked up, tested part not stated): as the sequence (Q6DE87 whole entry S344A, looked up, tested part not stated) above, with T314A counted along it
Sequence of GST-Xchk1(306-352), wild type peptide fragment (Q6DE87 306-352): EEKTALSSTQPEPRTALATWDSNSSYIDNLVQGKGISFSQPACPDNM
Sequence of GST-Xchk1(347-374) S365A (Q6DE87 whole entry S365A, looked up, the tested form may be a part): as the sequence (Q6DE87 whole entry S344A, looked up, tested part not stated) above, with A344S, S365A counted along it
Sequence of GST-Xchk1(347-374) S365A+S356A (Q6DE87 whole entry S356A/S365A, looked up, tested part not stated): as the sequence (Q6DE87 whole entry S344A, looked up, tested part not stated) above, with A344S, S356A, S365A counted along it
Sequence of GST-Xchk1-N135A (kinase inactive Xchk1 mutant, bacterially expressed) (Q6DE87 whole entry N135A, looked up): as the sequence (Q6DE87 whole entry S344A, looked up, tested part not stated) above, with N135A, A344S counted along it
Sequence of GST-Xchk1-N135A-4AQ (bacterially expressed) (Q6DE87 whole entry N135A, looked up): as the sequence (Q6DE87 whole entry S344A, looked up, tested part not stated) above, with N135A, A344S counted along it

Substance | in vitro phosphorylation of Xchk1 peptides [1] | in vitro phosphorylation of Xchk1 peptides [2] | in vitro phosphorylation of Xchk1 peptides [3] | in vitro phosphorylation of Xchk1 peptides [4] | in vitro phosphorylation of Xchk1 peptides [5] | in vitro phosphorylation of Xchk1 peptides [6] | in vitro phosphorylation of Xchk1 peptides [7] | in vitro phosphorylation of Xchk1 peptides [8] | in vitro phosphorylation (32P-ATP, autoradiography) [9] | in vitro phosphorylation (32P-ATP, autoradiography) [10] | phosphorylation of PHAS-I (in vitro kinase assay, autoradiography) [11]
Wildtype human Flag-tagged ATR isolated from 293T cells | human ATR phosphorylated each of the single point mutant Chk1 substrates (S365A, S356A, S344A and T314A); the level of phosphorylation of the single mutant forms of Xchk1 by human ATR is also reduced | human ATR does not phosphorylate the double mutant XChk1 substrates (S365A+S356A or S344A+T314A-as shown in lanes 4 and 12) | human ATR phosphorylated each of the single point mutant Chk1 substrates (S365A, S356A, S344A and T314A); the level of phosphorylation of the single mutant forms of Xchk1 by human ATR is also reduced | human ATR does not phosphorylate the double mutant XChk1 substrates (S365A+S356A or S344A+T314A-as shown in lanes 4 and 12) | human ATR phosphorylated each of the single point mutant Chk1 substrates (S365A, S356A, S344A and T314A); the level of phosphorylation of the single mutant forms of Xchk1 by human ATR is also reduced | Wildtype human ATR phosphorylated the wildtype XChk1 peptides Xchk1 (306-352) and Xchk1(347-374) | human ATR phosphorylated each of the single point mutant Chk1 substrates (S365A, S356A, S344A and T314A); the level of phosphorylation of the single mutant forms of Xchk1 by human ATR is also reduced | Wildtype human ATR phosphorylated the wildtype XChk1 peptides Xchk1 (306-352) and Xchk1(347-374) | – | – | –
Xenopus laevis ATR (Xatr), endogenous protein in Xenopus egg extracts | Xatr phosphorylated Xchk1 when a single SQ or TQ site is mutated although the level of phosphorylation is significantly reduced in comparison to that observed with wildtype peptide | mutation of both sites within each peptide (S365A+S356A or S344A+T314A) abolished phosphorylation by Xatr (lanes 4 and 8) | Xatr phosphorylated Xchk1 when a single SQ or TQ site is mutated although the level of phosphorylation is significantly reduced in comparison to that observed with wildtype peptide | mutation of both sites within each peptide (S365A+S356A or S344A+T314A) abolished phosphorylation by Xatr (lanes 4 and 8) | Xatr phosphorylated Xchk1 when a single SQ or TQ site is mutated although the level of phosphorylation is significantly reduced in comparison to that observed with wildtype peptide | Xatr phosphorylated both of the wildtype peptide fragments (lanes 1 and 5-top panel) | Xatr phosphorylated Xchk1 when a single SQ or TQ site is mutated although the level of phosphorylation is significantly reduced in comparison to that observed with wildtype peptide | Xatr phosphorylated both of the wildtype peptide fragments (lanes 1 and 5-top panel) | Xatr phosphorylates Xchk1 in vitro (compare lane 5 to lane 6) | the resulting mutant (GST-Xchk1-N135A-4AQ) was not phosphorylated by Xatr (lane 4) | these immunoprecipitates phosphorylated a model substrate protein (PHAS-I) in vitro
